These results are taken from patent US5294543.

The assay has as its target fibrinogen receptor on platelets (Homo sapiens (Human)) (UniProt P08514).

As to chrysoptin, the IC50 of inhibition of platelet aggregation induced by 5 µM ADP came to 16 nM.
